Experimental data as given in the supplement of paper PMC10567573.

B1: C22orf15 (parent)
chain: ITQSWQVSVRVQPRGRAHLLPNPY
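Also: lentivirally expressed fusions sorted by FACS into six bins by GFP to DsRed ratio, PSI derived from sequencing read proportions per bin multiplied by bin number.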

Variants of: B1
Test: protein stability index of a GFP-peptide fusion (GPS, HEK-293T) (PSI 1-6); higher = more stable
Settings: c terminus: a fixed tail appended
For ITQSWQVSVRVQPRGRAHLLGNPY [P21G], the protein stability index was 1.76.
With ITQSWQVSVRVQPRGRAHLLKNPY [P21K] the protein stability index was 1.64.
For ITQSWQVSVRVQPRGRAHLLTNPY [P21T], the protein stability index was 2.87.
With ITQSWQVSVRVQPRGRAHLLYNPY [P21Y] the protein stability index was 2.38.
For ITQSWQVSVRVQPRGRAHLLNNPY [P21N], the protein stability index was 1.68.
ITQSWQVSVRVQPRGRAHLLSNPY [P21S] showed a protein stability index of 1.7.
In the case of ITQSWQVSVRVQPRGRAHLLVNPY [P21V], the protein stability index is reported as 1.94.
For ITQSWQVSVRVQPRGRAHLLANPY [P21A], the protein stability index was 1.29.
Work on ITQSWQVSVRVQPRGRAHLLDNPY [P21D] yielded a protein stability index of 1.56.
ITQSWQVSVRVQPRGRAHLLLNPY [P21L] showed a protein stability index of 2.04.
For ITQSWQVSVRVQPRGRAHLLQNPY [P21Q], the protein stability index was 1.52.
Variant ITQSWQVSVRVQPRGRAHLLINPY [P21I] has a protein stability index of 1.91.
In the case of ITQSWQVSVRVQPRGRAHLLHNPY [P21H], the protein stability index is reported as 2.78.
With ITQSWQVSVRVQPRGRAHLLENPY [P21E] the protein stability index was 1.6.
In the case of ITQSWQVSVRVQPRGRAHLLCNPY [P21C], the protein stability index is reported as 3.18.
In the case of ITQSWQVSVRVQPRGRAHLLRNPY [P21R], the protein stability index is reported as 1.79.
ITQSWQVSVRVQPRGRAHLTPNPY [L20T] showed a protein stability index of 3.22.
Work on ITQSWQVSVRVQPRGRAHLYPNPY [L20Y] yielded a protein stability index of 3.07.
In the case of ITQSWQVSVRVQPRGRAHLSPNPY [L20S], the protein stability index is reported as 1.03.
With ITQSWQVSVRVQPRGRAHLRPNPY [L20R] the protein stability index was 1.7.
In the case of ITQSWQVSVRVQPRGRAHLVPNPY [L20V], the protein stability index is reported as 4.25.
ITQSWQVSVRVQPRGRAHLLPNPQ [Y24Q] showed a protein stability index of 1.47.
For ITQSWQVSVRVQPRGRAHLLPNPH [Y24H], the protein stability index was 1.07.
Work on ITQSWQVSVRVQPRGRAHLLPNPK [Y24K] yielded a protein stability index of 2.19.
Variant ITQSWQVSVRVQPRGRAHLLPNPT [Y24T] has a protein stability index of 2.34.
Variant ITQSWQVSVRVQPRGRAHLLPNPA [Y24A] has a protein stability index of 1.39.
ITQSWQVSVRVQPRGRAHLLPNPI [Y24I] showed a protein stability index of 2.29.
ITQSWQVSVRVQPRGRAHLLPNPP [Y24P] gave a protein stability index of 1.15.
With ITQSWQVSVRVQPRGRAHLLPNPN [Y24N] the protein stability index was 1.54.
With ITQSWQVSVRVQPRGRAHLLPNPD [Y24D] the protein stability index was 1.75.
Variant ITQSWQVSVRVQPRGRAHLLPNPS [Y24S] has a protein stability index of 1.34.
For ITQSWQVSVRVQPRGRAHLLPNPW [Y24W], the protein stability index was 2.93.
With ITQSWQVSVRVQPRGRAHLLPNPC [Y24C] the protein stability index was 1.71.
With ITQSWQVSVRVQPRGRAHLLPNPF [Y24F] the protein stability index was 2.47.
With ITQSWQVSVRVQPRGRAHLLPNPR [Y24R] the protein stability index was 2.1.
For ITQSWQVSVRVQPRGRAHLLPNKY [P23K], the protein stability index was 2.09.
Work on ITQSWQVSVRVQPRGRAHLLPNFY [P23F] yielded a protein stability index of 3.34.
In the case of ITQSWQVSVRVQPRGRAHLLPNHY [P23H], the protein stability index is reported as 1.27.
For ITQSWQVSVRVQPRGRAHLLPNRY [P23R], the protein stability index was 1.87.
ITQSWQVSVRVQPRGRAHLLPNQY [P23Q] gave a protein stability index of 1.93.
Work on ITQSWQVSVRVQPRGRAHLLPNNY [P23N] yielded a protein stability index of 3.05.
In the case of ITQSWQVSVRVQPRGRAHLLPNCY [P23C], the protein stability index is reported as 1.6.
Variant ITQSWQVSVRVQPRGRAHLLPNLY [P23L] has a protein stability index of 1.46.
In the case of ITQSWQVSVRVQPRGRAHLLPNDY [P23D], the protein stability index is reported as 1.42.
With ITQSWQVSVRVQPRGRAHLLPNSY [P23S] the protein stability index was 1.92.
In the case of ITQSWQVSVRVQPRGRAHLLPNGY [P23G], the protein stability index is reported as 1.32.
ITQSWQVSVRVQPRGRAHLLPNWY [P23W] showed a protein stability index of 1.11.
